Where a chain is given by its changes, count along the chain named.

The text below walks through data of patent US20050037012A1.

Holding throughout (assay): cell-based or functional assay
One experiment has as its target T1, human IL-28A (human) (UniProt Q8IZJ0).
T1 sequence: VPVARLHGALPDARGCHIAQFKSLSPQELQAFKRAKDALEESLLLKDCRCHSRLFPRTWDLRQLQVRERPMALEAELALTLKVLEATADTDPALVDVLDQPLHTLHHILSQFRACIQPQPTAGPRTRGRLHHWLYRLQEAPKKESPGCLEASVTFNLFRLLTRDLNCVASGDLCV

In experiment [1] the target is T2, mouse IL-28 (zcyto24) (mouse) (UniProt Q4VK74).
T2 sequence: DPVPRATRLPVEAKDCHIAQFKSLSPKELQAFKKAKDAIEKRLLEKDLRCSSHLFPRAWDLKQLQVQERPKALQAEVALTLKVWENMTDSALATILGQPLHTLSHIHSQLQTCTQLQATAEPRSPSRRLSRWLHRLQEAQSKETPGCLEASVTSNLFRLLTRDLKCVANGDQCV

The target of another experiment is human IL-29 (human) (UniProt Q8IU54).
Experiment [2] deals with human IL-28 receptor (IL-28 receptor alpha subunit with CRF2-4) on 293 HEK cells (human).
human IL-28 receptor (IL-28 receptor alpha subunit with CRF2-4) on 293 HEK cells (human), sequence (Q8IU57 whole entry, chain 1 of 2): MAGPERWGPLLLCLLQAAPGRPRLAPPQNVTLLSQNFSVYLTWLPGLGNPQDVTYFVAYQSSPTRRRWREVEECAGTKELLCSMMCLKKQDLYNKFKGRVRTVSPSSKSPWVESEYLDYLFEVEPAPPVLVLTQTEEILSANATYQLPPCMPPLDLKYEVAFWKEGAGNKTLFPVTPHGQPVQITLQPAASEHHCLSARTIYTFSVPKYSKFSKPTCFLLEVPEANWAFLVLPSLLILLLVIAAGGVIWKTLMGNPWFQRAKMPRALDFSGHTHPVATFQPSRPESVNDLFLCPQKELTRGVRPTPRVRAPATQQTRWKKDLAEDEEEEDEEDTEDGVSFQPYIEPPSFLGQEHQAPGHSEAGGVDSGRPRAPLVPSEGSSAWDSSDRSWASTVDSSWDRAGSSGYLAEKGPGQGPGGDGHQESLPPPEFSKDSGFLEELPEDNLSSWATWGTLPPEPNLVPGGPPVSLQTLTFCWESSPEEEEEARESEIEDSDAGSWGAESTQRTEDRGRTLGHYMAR
human IL-28 receptor (IL-28 receptor alpha subunit with CRF2-4) on 293 HEK cells (human), sequence (Q08334 whole entry, chain 2 of 2, further chain): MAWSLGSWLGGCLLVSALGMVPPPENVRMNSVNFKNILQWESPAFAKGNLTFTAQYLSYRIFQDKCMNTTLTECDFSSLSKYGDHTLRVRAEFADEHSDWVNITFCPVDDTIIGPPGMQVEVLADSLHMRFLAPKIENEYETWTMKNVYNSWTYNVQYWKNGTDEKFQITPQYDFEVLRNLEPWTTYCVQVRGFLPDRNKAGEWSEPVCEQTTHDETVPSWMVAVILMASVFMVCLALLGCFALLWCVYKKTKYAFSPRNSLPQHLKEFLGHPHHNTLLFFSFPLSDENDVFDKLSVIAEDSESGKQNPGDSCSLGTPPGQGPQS

human IL-29 (human), sequence (Q8IU54 20-200): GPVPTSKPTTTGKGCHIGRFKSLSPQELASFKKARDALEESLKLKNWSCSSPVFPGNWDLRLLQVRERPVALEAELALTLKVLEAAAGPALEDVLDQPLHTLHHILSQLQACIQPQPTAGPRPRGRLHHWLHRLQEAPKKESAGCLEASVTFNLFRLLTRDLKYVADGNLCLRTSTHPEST

Turning to “human zcytor19-Fc/human CRF2-4-Fc heterodimer soluble receptor (Fc fusion)”, the figures for the Percent Inhibition of Ligand-induced ISRE Signaling by Soluble Receptors; 10 ng/ml ligand, 10 micrograms/ml soluble receptor; 293 HEK cells overexpressing zcytor19 (with human IL-28A (human); in experiment [1]; in the experiment with human IL-29 (human)) were 16%, 47% and 16%, respectively.

As for “human CRF2-4-Fc homodimer soluble receptor (Fc fusion)”, the Percent Inhibition of Ligand-induced ISRE Signaling by Soluble Receptors; 10 ng/ml ligand, 10 micrograms/ml soluble receptor; 293 HEK cells overexpressing zcytor19 is 80% with human IL-28A (human), 82% in experiment [1] and 79% with human IL-29 (human).

Molecule “zcyto10 (from UniProt Q9NYY1 25-176) (ligand)” showed an ISRE-luciferase signaling, fold induction over medium alone; Zcyto10 at 125 ng/ml; 293 cells transfected with ISRE-Luc. and IL-28R (fold induction) in experiment [2] of 1.

As to “huIL10 (from UniProt P22301 19-178) (ligand)”, the ISRE-luciferase signaling, fold induction over medium alone; HuIL10 at 100 ng/ml; 293 cells transfected with ISRE-Luc. and IL-28R (fold induction) in experiment [2] stood at 0.5.

B1: human zcytor19-Fc homodimer soluble receptor (Fc fusion, not shown: a dimerising Fc or GST)
chain: RPRLAPPQNVTLLSQNFSVYLTWLPGLGNPQDVTYFVAYQSSPTRRRWREVEECAGTKELLCSMMCLKKQDLYNKFKGRVRTVSPSSKSPWVESEYLDYLFEVEPAPPVLVLTQTEEILSANATYQLPPCMPPLDLKYEVAFWKEGAGNKTLFPVTPHGQPVQITLQPAASEHHCLSARTIYTFSVPKYSKFSKPTCFLLEVPEANWA
On to B1, for which the Percent Inhibition of Ligand-induced ISRE Signaling by Soluble Receptors; 10 ng/ml ligand, 10 micrograms/ml soluble receptor; 293 HEK cells overexpressing zcytor19 with human IL-28A (human) was found to be 92%; in experiment [1] it was 90%; with human IL-29 (human) it was 45%.

B2: murine zcytor19-Ig homodimer soluble receptor (Fc fusion, mouse, UniProt Q8CGK5 21-227, looked up, not shown: a dimerising Fc or GST)
chain: RPRLAPPRNVTLFSQNFTVYLTWLPGLGSPPNVTYFVTYQSYIKTGWRPVEHCAGIKALVCPLMCLKKLNLYSKFKGRVQAASAHGRSPRVESRYLEYLFDVELAPPTLVLTQMEKILRVNATYQLPPCMPSLELKYQVEFWKEGLGSKTLFPDTPYGQPVQIPLQQGASRRHCLSARTVYTLIDIKYSQFSEPSCIFLEAPGDKRA
As to B2, the Percent Inhibition of Ligand-induced ISRE Signaling by Soluble Receptors; 10 ng/ml ligand, 10 micrograms/ml soluble receptor; 293 HEK cells overexpressing zcytor19 in the experiment with human IL-28A (human) was 91%; in experiment [1] it was 89%; with human IL-29 (human), 103%.

B3: human IL-28B (ligand)
chain: T1 sequence with H7R, R49K, H51R, M71V, V95G, F112L, Y135H
As for B3, the ISRE-luciferase signaling, fold induction over medium alone; IL-28B at 125 ng/ml; 293 cells transfected with ISRE-Luc. and IL-28R (fold induction) in experiment [2] amounted to 104.
